This note sets out measurements from patent US20240301067A1 (WUXI BIOLOGICS IRELAND, published 2024).

The term EC50 denotes the midpoint of the concentration-response curve. The IC50 is the point on the concentration scale where inhibition reaches its midpoint. In general, EC50 (read off the curve) refers to the concentration needed to bring the measured effect to its halfway point.

In assay [1] the target is T1, Human CD28 extracellular domain, mFc tag (human, UniProt P10747 19-152).
T1 construct: extracellular domain; also called hCD28.ECD.mFc; not shown: mouse Fc tag at C-terminus
Kind of assay: ELISA, coated antigen 1 ug/mL, antibody 100 nM, HRP goat anti-human IgG. As to the method:
Plates were pre-coated with 1 μg/mL, 100 μL per well of hPD-1.ECD.mFc, hCD28.ECD.mFc, hCTLA-4.ECD.His, hICOS.ECD.mFc or hBTLA.ECD.His at 4° C. overnight. After 1-hour blocking using 200 μL of 1×PBS/2% BSA, testing antibodies were added to the plates at a concentration of 100 nM. The plates were incubated at ambient temperature for 1 hour. The binding of the antibodies to the immobilized proteins was detected by HRP-labeled goat anti-human IgG antibody. The color was developed by dispensing 100 μL of TMB substrate, and then stopped by 100 μL of 2N HCl. The absorbance was read at 450 nm and 540 nm using a microplate spectrophotometer.
A general note: In an ELISA, binding on a coated surface is turned into a signal by an enzyme label.

For assay [2], the target named is T2, Cynomolgus monkey PD-1 on transiently transfected 293F cells (cynomolgus monkey).
T2 construct: whole, on cells; also called cell surface cynomolgus PD-1; cyno PD-1
Nature of the assay: FACS on cyno PD-1 transfected 293F cells, experiment 1. How it is done: Cynomolgus monkey PD-1 (GenBank Accession No. NP_001271065.1) transient transfected 293F cells (2×10⁵ cells/well) were incubated with various concentrations of anti-PD-1 antibodies (3-fold serially diluted from 133.4 nM to 0.008 nM) at 4° C. for 1 hour. After washing with 1×PBS/1% BSA, the secondary antibody PE-labeled goat anti-human IgG was applied and incubated with cells at 4° C. for 1 hour. Anti-human PD-1 antibodies BMK1 and BMK3 were used as positive control. Human IgG4 isotype antibody was used as negative control. The cells were then washed and re-suspended in 1×PBS/1% BSA. MFI of the cells was measured by a flow cytometer and analyzed by FlowJo (version 7.6.1).

Assay [3] has as its target T3, Cynomolgus PD-1 extracellular domain, hFc tag (cynomolgus, UniProt B0LAJ3 25-170).
T3 construct: Bought; also called cynoPro1.ECD.hFc; cyno PD-1 ECD protein
Kind of assay: ELISA competition on coated cynoPro1.ECD.hFc; competitor cynoProL1.ECD.hFc.biotin 2.5 µg/mL; experiment 1. How it is done:
Plates were pre-coated with 1 μg/mL, 100 μL per well of cyno PD-1 ECD protein (cynoPro1.ECD.hFc) at 4° C. overnight. After 1-hour blocking using 200 μL of 1×PBS/2% BSA, constant concentration of biotinylated cyno PD-L1 (cynoProL1.ECD.hFc.biotin) (2.5 μg/mL) and various concentrations of testing antibody, positive and negative control (3-fold serially diluted from 133.4 nM to 0.007 nM) were pre-mixed and added to the plates. The plates were incubated at ambient temperature for 1 hour. The binding of ligand to the immobilized protein was detected by streptavidin-HRP. The color was developed by dispensing 100 μL of TMB substrate, and then stopped by 100 μL of 2M HCl. The absorbance was read at 450 nm and 540 nm using a microplate spectrophotometer.

Assay [4] deals with T4, Human PD-1 extracellular domain, mFc tag (human, UniProt Q15116 25-170).
T4 construct: extracellular domain; also called hPro1.ECD.mFc; hPD-1.ECD.mFc; not shown: mouse Fc tag at C-terminus
Kind of assay: ELISA competition on coated hPro1.ECD.mFc; competitor hPro1L2.ECD.His; experiment 1. How it is done:
(§1) Plates were pre-coated with 1 μg/mL, 100 μL per well of human PD-1 ECD (hPro1.ECD.mFc) at 4° C. overnight. After 1-hour blocking using 200 μL of 1×PBS/2% BSA, constant concentration of his tagged human PD-L2 ECD (hPro1L2.ECD.His) and various concentrations of testing antibodies (3-fold serially diluted from 66.7 nM to 0.003 nM) were pre-mixed and added to the plates. After 2-hour incubation at ambient temperature, the binding of the ligand to the immobilized protein was detected by HRP-labeled goat anti-His antibody. The color was developed by dispensing 100 μL of TMB substrate, and then stopped by 100 μL of 2N HCl. The absorbance was read at 450 nm and 540 nm using a microplate spectrophotometer.

For assay [5], the target named is T4, Human PD-1 extracellular domain, mFc tag. Kind of assay: ELISA competition on coated hPro1.ECD.mFc; competitor hPro1L2.ECD.His; experiment 2. How it is done: as §1
The target of assay [6] is T5, Human PD-1 on CHO-S cells (human, UniProt Q15116 25-288).
T5 construct: whole, on cells; also called CHO-S.hPro1.C6; WBP305.CHO-S.hPro1.C6
Kind of assay: FACS on CHO-S.hPro1.C6 cells, antibody kept 0 to 14 days in human serum at 37 C, PE goat anti-human IgG. How it is done:
The human PD-1 transfected cell line WBP305-CHO-S.hPro1.C6 cells (1×10⁵ cells/well) were incubated with various concentrations of serum treated W3056 anti-PD-1 antibodies (3-fold serially diluted from 129.9 nM to 0.0007 nM) at 4° C. for 1 hour. After washing with 1×PBS/1% BSA, the secondary antibody PE-labeled goat anti-human IgG was applied and incubated with cells at 4° C. for 1 hour. Human IgG4 isotype antibody was used as negative control. The cells were then washed and resuspended in 1×PBS/1% BSA. MFI of the cells was measured by a flow cytometer (BD) and analyzed by FlowJo.

Assay [7] concerns the target T5, Human PD-1 on CHO-S cells. Nature of the assay: FACS competition with biotinylated BMK3 (1 ug/mL) on CHO-S.hPro1.C6 cells, SA-PE. As to the method:
The human PD-1 transfected cells CHO-S.hPro1.C6 were transferred into 96-well U-bottom plates at a density of 1˜2×10⁵ cells/well. Serial dilutions of testing antibodies (4-fold serially diluted from 133.3 nM to 0.008 nM) were mixed with constant concentration of biotinylated BMK1 (1 μg/mL) or biotinylated BMK3 (1 μg/mL), respectively. Then the mixture was added to the cells in 96-well plates and incubated at 4° C. for 1 hour. After washing with 1×PBS/1% BSA, the secondary antibody SA-PE was applied and incubated with cells at 4° C. for 1 hour. The cells were then washed and resuspended in 1×PBS/1% BSA. MFI of the cells was measured by a flow cytometer and analyzed by FlowJo. Data were shown FIG. 9.

T5 sequence (Q15116 25-288): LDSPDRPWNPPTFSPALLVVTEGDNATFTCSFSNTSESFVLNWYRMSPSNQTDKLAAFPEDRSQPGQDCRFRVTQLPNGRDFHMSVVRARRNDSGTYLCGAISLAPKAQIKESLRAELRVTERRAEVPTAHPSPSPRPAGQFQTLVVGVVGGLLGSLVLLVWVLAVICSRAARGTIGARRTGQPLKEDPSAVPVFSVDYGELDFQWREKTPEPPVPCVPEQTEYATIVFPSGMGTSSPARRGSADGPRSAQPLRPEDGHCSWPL
T1 sequence (P10747 19-152): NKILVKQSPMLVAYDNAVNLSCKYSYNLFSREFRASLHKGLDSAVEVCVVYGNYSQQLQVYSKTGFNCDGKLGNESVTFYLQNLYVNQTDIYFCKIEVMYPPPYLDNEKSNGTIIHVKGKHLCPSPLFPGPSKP
T4 sequence (Q15116 25-170): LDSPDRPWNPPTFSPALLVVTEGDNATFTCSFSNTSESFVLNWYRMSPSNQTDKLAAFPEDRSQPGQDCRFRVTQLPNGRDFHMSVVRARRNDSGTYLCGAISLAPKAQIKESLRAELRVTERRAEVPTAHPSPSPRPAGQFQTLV
T3 sequence (B0LAJ3 entry or part of it limits assumed): as the sequence (Q15116 25-170) above, with D2E, P10A, V19L, T35A, Q75R, T144A counted along it

B1: W3056-AP17R1-2H2-FC(IgG4.SP) (Fc fusion)
chain: QVQLVESGGGLVQPGGSLRLSCAASDSIDSLVNMGWYRQAPGKQRELVALIANYITHYADFVKGRFTISRDAAKNTVNLQMSSLKPEDTAVYYCYARNIIVDYWGQGTQVTVSS
notes: VHH fused to Fc of human IgG4 S228P; also called W3056 lead parental antibody (VHH-Fc(hIgG4) fusion); not shown: Fc of human IgG4 (hIgG4.S228P)
For B1, in assay [1], the binding result is on record as “no binding (tested: 100 nM)”. In assay [2], this molecule registered an EC50 of 0.98 nM. The concentration for half-maximal inhibition (IC50) stood at 1.3 nM in assay [3] and 2.02 nM in assay [4].

B2: W3056-AP17R1-2H2-Z1-R1-14A1-FC(IgG4.SP) (Fc fusion)
chain: QVQLVESGGGVVQPGGSLRLSCAASDSIDSLVNMGWYRQAPGKQRELVALIATYITHYADFVKGRFTISRDNSKNTLYLQMNSLRAEDTAVYYCYARNIIVDYWGQGTLVTVSS
notes: also called W3056 lead antibody (VHH-Fc(hIgG4) fusion); not shown: Fc of human IgG4 (hIgG4.S228P)
In the case of B2, the binding result in assay [1] is reported as “no binding (tested: 100 nM)”. In assay [5], the IC50 came to 0.886 nM. Further, the 50% effective concentration (EC50 (read off the curve)) in assay [6] lay in the range of 1 to 2 nM. Moreover, the “IC50 (read off the curve)” value in assay [7] was ~20 nM.
